B1: Mothers against decapentaplegic homolog 4 (Homo sapiens), Q13485 (parent)
chain: MDNMSITNTPTSNDACLSIVHSLMCHRQGGESETFAKRAIESLVKKLKEKKDELDSLITAITTNGAHPSKCVTIQRTLDGRLQVAGRKGFPHVIYARLWRWPDLHKNELKHVKYCQYAFDLKCDSVCVNPYHYERVVSPGIDLSGLTLQSNAPSSMMVKDEYVHDFEGQPSLSTEGHSIQTIQHPPSNRASTETYSTPALLAPSESNATSTANFPNIPVASTSQPASILGGSHSEGLLQIASGPQPGQQQNGFTGQPATYHHNSTTTWTGSRTAPYTPNLPHHQNGHLQHHPPMPPHPGHYWPVHNELAFQPPISNHPAPEYWCSIAYFEMDVQVGETFKVPSSCPIVTVDGYVDPSGGDRFCLGQLSNVHRTEAIERARLHIGKGVQLECKGEGDVWVRCLSDHAVFVQSYYLDREAGRAPGDAVHKIYPSAYIKVFDLRQCHRQMQQQAATAQAAAAAQAAAVAGNIPGPGSVGGIAPAISLSAAAGIGVDDLRRLCILRMSFVKGWGPDYPRQSIKETPCWIEIHLHRALQLLDEVLHTMPIADPQPLD

Variants of: B1
Details: with maga6_human MAGEA6, P43360

effect of a mutation on the interaction	Variant
with no effect	R361H

Variants of: B1
Details: with mp2k7_human MAP2K7, O14733

effect of a mutation on the interaction	Variant
with no effect	R361H

Variants of: B1
Details: with m3k1_human MAP3K1, Q13233
Sequence of m3k1_human MAP3K1, Q13233 (Q13233 whole entry): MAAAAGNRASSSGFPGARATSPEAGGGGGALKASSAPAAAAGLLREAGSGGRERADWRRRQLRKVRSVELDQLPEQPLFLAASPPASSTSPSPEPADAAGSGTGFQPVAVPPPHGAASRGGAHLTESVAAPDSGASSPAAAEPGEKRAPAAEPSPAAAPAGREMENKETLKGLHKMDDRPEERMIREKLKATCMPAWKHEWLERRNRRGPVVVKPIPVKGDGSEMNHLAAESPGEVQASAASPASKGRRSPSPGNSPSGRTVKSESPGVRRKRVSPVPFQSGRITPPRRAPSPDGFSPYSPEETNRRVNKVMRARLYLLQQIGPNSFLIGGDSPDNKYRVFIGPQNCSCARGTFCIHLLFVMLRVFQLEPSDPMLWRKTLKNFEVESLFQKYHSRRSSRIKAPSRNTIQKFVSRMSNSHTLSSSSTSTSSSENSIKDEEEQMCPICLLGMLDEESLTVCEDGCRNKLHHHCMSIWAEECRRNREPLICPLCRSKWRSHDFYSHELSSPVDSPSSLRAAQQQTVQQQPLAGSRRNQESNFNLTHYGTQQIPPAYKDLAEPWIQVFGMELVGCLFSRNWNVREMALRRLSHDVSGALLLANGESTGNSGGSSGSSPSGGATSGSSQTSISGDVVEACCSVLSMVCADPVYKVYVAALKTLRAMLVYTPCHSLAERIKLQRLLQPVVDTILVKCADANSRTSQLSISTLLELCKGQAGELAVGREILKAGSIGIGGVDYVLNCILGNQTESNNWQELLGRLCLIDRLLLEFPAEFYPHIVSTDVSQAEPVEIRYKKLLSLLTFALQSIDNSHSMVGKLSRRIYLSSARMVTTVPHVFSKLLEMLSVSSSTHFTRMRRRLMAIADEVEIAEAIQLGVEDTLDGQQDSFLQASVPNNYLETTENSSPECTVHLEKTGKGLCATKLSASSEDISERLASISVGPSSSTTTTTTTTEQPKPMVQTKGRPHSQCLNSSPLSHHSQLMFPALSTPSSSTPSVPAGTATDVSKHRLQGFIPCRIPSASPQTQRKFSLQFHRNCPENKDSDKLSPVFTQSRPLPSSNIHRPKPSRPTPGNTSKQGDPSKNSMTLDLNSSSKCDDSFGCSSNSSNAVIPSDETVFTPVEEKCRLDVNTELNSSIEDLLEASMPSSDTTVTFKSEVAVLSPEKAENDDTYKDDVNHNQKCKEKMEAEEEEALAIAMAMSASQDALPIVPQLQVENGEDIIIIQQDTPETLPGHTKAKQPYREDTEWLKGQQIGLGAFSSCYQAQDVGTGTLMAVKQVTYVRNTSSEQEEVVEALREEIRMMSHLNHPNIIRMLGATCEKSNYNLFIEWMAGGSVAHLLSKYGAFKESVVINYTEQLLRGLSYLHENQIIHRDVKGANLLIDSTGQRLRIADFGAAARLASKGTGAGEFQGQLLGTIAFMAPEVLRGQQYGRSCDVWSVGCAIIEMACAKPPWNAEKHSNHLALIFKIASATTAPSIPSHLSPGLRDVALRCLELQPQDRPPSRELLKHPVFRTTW

effect of a mutation on the interaction	Variant
with no effect	R361H

Variants of: B1
Details: with mk10_human MAPK10, P53779

effect of a mutation on the interaction	Variant
with no effect	R361H

Variants of: B1
Details: with mk14_human MAPK14, Q16539

effect of a mutation on the interaction	Variant
with no effect	R361H

Variants of: B1
Details: with mk03_human MAPK3, P27361

effect of a mutation on the interaction	Variant
with no effect	R361H

Variants of: B1
Details: with mk04_human MAPK4, P31152

effect of a mutation on the interaction	Variant
with no effect	R361H

Variants of: B1
Details: with mk06_human MAPK6, Q16659

effect of a mutation on the interaction	Variant
with no effect	R361H

Variants of: B1
Details: with mk07_human MAPK7, Q13164

effect of a mutation on the interaction	Variant
with no effect	R361H

Variants of: B1
Details: with mcl1_human MCL1, Q07820

effect of a mutation on the interaction	Variant
with no effect	R361H

Variants of: B1
Details: with myc_human MYC

effect of a mutation on the interaction	Variant
with no effect	R361H

Variants of: B1
Details: with nf1_human NF1, P21359

effect of a mutation on the interaction	Variant
with no effect	R361H

Variants of: B1
Details: with merl_human NF2, P35240
Sequence of merl_human NF2, P35240 (P35240 whole entry): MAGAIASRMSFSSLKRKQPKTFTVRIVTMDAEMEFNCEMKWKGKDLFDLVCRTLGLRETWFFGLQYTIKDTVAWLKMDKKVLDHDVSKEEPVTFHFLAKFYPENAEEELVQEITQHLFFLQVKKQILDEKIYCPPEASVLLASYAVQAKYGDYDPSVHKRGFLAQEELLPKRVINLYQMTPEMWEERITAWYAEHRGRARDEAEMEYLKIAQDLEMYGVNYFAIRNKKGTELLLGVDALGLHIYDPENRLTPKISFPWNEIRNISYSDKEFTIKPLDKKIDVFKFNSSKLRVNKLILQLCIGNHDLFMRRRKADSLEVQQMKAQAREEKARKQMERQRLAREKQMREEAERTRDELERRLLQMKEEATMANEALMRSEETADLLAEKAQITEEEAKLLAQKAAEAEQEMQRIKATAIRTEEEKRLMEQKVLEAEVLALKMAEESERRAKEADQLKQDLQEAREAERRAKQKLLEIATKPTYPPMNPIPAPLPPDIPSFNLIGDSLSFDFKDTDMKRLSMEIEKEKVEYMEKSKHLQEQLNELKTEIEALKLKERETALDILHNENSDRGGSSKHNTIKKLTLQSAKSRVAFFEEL

effect of a mutation on the interaction	Variant
with no effect	R361H

Variants of: B1
Details: with nfic_human NFIC

effect of a mutation on the interaction	Variant
with no effect	R361H

Variants of: B1
Details: with nsd3_human NSD3, Q9BZ95

effect of a mutation on the interaction	Variant
with no effect	R361H

Variants of: B1
Details: with pak3_human PAK3, O75914

effect of a mutation on the interaction	Variant
with no effect	R361H

Variants of: B1
Details: with pax5_human PAX5, Q02548
Sequence of pax5_human PAX5, Q02548 (Q02548 whole entry): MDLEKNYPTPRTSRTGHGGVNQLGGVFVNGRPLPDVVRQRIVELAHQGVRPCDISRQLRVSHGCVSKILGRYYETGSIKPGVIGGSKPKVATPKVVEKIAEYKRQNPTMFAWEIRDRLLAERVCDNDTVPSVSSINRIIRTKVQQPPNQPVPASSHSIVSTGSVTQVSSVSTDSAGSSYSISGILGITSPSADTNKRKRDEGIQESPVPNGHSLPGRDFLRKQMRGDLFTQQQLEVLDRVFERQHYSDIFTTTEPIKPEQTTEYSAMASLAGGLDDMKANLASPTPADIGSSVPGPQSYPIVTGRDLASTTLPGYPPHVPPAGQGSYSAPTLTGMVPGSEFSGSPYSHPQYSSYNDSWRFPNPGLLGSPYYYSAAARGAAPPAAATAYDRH

effect of a mutation on the interaction	Variant
with no effect	R361H

Variants of: B1
Details: with pax9_human PAX9, P55771

effect of a mutation on the interaction	Variant
with no effect	R361H

Variants of: B1
Details: with pcbp1_human PCBP1, Q15365

effect of a mutation on the interaction	Variant
with no effect	R361H

Variants of: B1
Details: with pgfra_human PDGFRA

effect of a mutation on the interaction	Variant
with no effect	R361H

Variants of: B1
Details: with pgfrb_human PDGFRB

effect of a mutation on the interaction	Variant
with no effect	R361H

Variants of: B1
Details: with pdk1_human PDK1, Q15118

effect of a mutation on the interaction	Variant
with no effect	R361H

Variants of: B1
Details: with PIK3C2B

effect of a mutation on the interaction	Variant
with no effect	R361H

Variants of: B1
Details: with pk3c3_human PIK3C3, Q8NEB9

effect of a mutation on the interaction	Variant
with no effect	R361H

Variants of: B1
Details: with pk3ca_human PIK3CA

effect of a mutation on the interaction	Variant
with no effect	R361H

Variants of: B1
Details: with pk3cg_human PIK3CG

effect of a mutation on the interaction	Variant
with no effect	R361H

Variants of: B1
Details: with p85a_human PIK3R1, P27986

effect of a mutation on the interaction	Variant
with no effect	R361H

Variants of: B1
Details: with p85b_human PIK3R2, O00459

effect of a mutation on the interaction	Variant
with no effect	R361H

Variants of: B1
Details: with dpod1_human POLD1, P28340
Sequence of dpod1_human POLD1, P28340 (P28340 whole entry): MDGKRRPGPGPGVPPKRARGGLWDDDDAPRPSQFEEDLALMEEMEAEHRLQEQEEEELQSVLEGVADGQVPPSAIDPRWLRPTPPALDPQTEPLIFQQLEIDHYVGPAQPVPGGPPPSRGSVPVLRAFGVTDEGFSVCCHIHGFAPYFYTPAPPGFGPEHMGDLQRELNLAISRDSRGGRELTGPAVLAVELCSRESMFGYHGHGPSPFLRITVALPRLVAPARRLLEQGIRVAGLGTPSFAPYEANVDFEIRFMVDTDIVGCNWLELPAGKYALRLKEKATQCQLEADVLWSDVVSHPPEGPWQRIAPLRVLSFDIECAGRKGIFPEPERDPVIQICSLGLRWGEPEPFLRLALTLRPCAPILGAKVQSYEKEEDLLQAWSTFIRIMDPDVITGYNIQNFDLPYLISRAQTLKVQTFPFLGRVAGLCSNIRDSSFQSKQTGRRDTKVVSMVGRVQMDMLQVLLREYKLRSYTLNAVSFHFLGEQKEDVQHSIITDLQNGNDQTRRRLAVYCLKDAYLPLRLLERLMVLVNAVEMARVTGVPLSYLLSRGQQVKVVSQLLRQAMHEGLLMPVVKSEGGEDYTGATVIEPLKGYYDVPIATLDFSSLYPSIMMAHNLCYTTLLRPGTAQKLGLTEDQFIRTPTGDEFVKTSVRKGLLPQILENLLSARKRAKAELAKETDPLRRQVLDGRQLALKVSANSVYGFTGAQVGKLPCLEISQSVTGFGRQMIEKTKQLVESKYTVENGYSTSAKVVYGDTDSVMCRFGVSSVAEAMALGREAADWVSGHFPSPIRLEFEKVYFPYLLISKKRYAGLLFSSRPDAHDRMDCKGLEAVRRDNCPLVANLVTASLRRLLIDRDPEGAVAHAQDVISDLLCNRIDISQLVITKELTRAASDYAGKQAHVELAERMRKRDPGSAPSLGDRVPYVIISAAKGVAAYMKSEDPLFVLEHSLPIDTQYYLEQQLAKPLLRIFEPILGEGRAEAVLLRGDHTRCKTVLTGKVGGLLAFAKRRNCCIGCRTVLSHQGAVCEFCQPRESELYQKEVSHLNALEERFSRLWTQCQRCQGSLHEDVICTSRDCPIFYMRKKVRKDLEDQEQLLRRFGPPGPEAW

effect of a mutation on the interaction	Variant
with no effect	R361H

Variants of: B1
Details: with dpoe1_human POLE

effect of a mutation on the interaction	Variant
with no effect	R361H

Variants of: B1
Details: with lipa1_human PPFIA1, Q13136

effect of a mutation on the interaction	Variant
with no effect	R361H

Variants of: B1
Details: with 2aaa_human PPP2R1A

effect of a mutation on the interaction	Variant
with no effect	R361H

Variants of: B1
Details: with prdm1_human PRDM1, O75626

effect of a mutation on the interaction	Variant
with no effect	R361H

Variants of: B1
Details: with aapk2_human PRKAA2, P54646

effect of a mutation on the interaction	Variant
with no effect	R361H

Variants of: B1
Details: with prss8_human PRSS8, Q16651
Sequence of prss8_human PRSS8, Q16651 (Q16651 whole entry, looked up): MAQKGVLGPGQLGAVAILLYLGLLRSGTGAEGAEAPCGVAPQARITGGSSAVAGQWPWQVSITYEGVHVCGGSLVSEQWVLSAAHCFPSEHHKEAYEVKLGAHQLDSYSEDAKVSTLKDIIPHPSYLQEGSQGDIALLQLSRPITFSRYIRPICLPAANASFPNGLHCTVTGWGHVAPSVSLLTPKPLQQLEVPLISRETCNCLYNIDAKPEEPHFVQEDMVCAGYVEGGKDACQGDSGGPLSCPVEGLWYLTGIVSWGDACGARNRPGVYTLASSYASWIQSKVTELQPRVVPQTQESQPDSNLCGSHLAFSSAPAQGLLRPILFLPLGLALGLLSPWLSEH

effect of a mutation on the interaction	Variant
with no effect	R361H

Variants of: B1
Details: with ptk6_human PTK6, Q13882

effect of a mutation on the interaction	Variant
with no effect	R361H

Variants of: B1
Details: with tf65_human RELA

effect of a mutation on the interaction	Variant
with no effect	R361H

Variants of: B1
Details: with rnf43_human RNF43, Q68DV7

effect of a mutation on the interaction	Variant
with no effect	R361H

Variants of: B1
Details: with ros1_human ROS1, P08922

effect of a mutation on the interaction	Variant
with no effect	R361H

Variants of: B1
Details: with rl5_human RPL5, P46777

effect of a mutation on the interaction	Variant
with no effect	R361H

Variants of: B1
Details: with runx1_human RUNX1, Q01196
Sequence of runx1_human RUNX1, Q01196 (Q01196 whole entry): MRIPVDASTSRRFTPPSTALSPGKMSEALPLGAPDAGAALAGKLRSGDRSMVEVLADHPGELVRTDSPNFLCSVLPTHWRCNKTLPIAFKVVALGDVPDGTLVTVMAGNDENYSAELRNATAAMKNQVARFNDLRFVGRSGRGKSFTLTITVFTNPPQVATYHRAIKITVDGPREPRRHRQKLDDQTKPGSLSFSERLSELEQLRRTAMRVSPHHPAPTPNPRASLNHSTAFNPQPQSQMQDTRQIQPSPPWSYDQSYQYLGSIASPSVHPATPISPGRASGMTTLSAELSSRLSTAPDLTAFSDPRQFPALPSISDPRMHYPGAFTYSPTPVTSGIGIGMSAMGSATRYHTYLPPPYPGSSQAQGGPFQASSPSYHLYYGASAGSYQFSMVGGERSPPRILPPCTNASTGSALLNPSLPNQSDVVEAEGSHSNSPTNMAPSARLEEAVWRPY

effect of a mutation on the interaction	Variant
with no effect	R361H

Variants of: B1
Details: with ruvb1_human RUVBL1, Q9Y265

effect of a mutation on the interaction	Variant
with no effect	R361H

Variants of: B1
Details: with rxra_human RXRA

effect of a mutation on the interaction	Variant
with no effect	R361H

Variants of: B1
Details: with sdha_human SDHA

effect of a mutation on the interaction	Variant
with no effect	R361H

Variants of: B1
Details: with setb1_human SETDB1, Q15047

effect of a mutation on the interaction	Variant
with no effect	R361H

Variants of: B1
Details: with sf3b1_human SF3B1, O75533

effect of a mutation on the interaction	Variant
with no effect	R361H

Variants of: B1
Details: with skp2_human SKP2, Q13309

effect of a mutation on the interaction	Variant
with no effect	R361H

Variants of: B1
Details: with smad1_human SMAD1, Q15797

effect of a mutation on the interaction	Variant
with no effect	R361H

Variants of: B1
Details: with smad2_human SMAD2, Q15796

effect of a mutation on the interaction	Variant
with no effect	R361H

Variants of: B1
Details: with smad3_human SMAD3, P84022
Sequence of smad3_human SMAD3, P84022 (P84022 whole entry, looked up): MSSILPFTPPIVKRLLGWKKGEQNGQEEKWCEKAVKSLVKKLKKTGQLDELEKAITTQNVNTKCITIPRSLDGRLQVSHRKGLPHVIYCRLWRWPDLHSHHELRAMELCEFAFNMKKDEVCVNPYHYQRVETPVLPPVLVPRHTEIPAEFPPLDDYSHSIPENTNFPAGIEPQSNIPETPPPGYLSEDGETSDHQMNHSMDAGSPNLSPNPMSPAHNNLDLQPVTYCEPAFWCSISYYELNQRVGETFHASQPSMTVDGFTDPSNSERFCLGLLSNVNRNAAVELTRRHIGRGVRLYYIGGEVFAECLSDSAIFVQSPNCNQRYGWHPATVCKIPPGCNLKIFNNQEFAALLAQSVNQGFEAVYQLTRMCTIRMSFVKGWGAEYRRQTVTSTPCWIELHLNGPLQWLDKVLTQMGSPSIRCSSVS

effect of a mutation on the interaction	Variant
with no effect	R361H

Variants of: B1
Details: with smca4_human SMARCA4, P51532

effect of a mutation on the interaction	Variant
with no effect	R361H

Variants of: B1
Details: with snf5_human SMARCB1, Q12824

effect of a mutation on the interaction	Variant
with no effect	R361H

Variants of: B1
Details: with smo_human SMO

effect of a mutation on the interaction	Variant
with no effect	R361H

Variants of: B1
Details: with sox10_human SOX10, P56693

effect of a mutation on the interaction	Variant
with no effect	R361H

Variants of: B1
Details: with sox2_human SOX2, P48431

effect of a mutation on the interaction	Variant
with no effect	R361H

Variants of: B1
Details: with sox3_human SOX3, P41225

effect of a mutation on the interaction	Variant
with no effect	R361H

Variants of: B1
Details: with sox4_human SOX4, Q06945

effect of a mutation on the interaction	Variant
with no effect	R361H

Variants of: B1
Details: with sox9_human SOX9, P48436

effect of a mutation on the interaction	Variant
with no effect	R361H

Variants of: B1
Details: with spop_human SPOP

effect of a mutation on the interaction	Variant
with no effect	R361H

Variants of: B1
Details: with src_human SRC

effect of a mutation on the interaction	Variant
with no effect	R361H

Variants of: B1
Details: with stat3_human STAT3, P40763

effect of a mutation on the interaction	Variant
with no effect	R361H

Variants of: B1
Details: with stk38_human STK38, Q15208

effect of a mutation on the interaction	Variant
with no effect	R361H

Variants of: B1
Details: with ksyk_human SYK

effect of a mutation on the interaction	Variant
with no effect	R361H

Variants of: B1
Details: with eloc_human ELOC

effect of a mutation on the interaction	Variant
with no effect	R361H

Variants of: B1
Details: with tfe2_human TCF3, P15923

effect of a mutation on the interaction	Variant
with no effect	R361H

Variants of: B1
Details: with tead1_human TEAD1, P28347

effect of a mutation on the interaction	Variant
with no effect	R361H

Variants of: B1
Details: with tead2_human TEAD2, Q15562

effect of a mutation on the interaction	Variant
with no effect	R361H

Variants of: B1
Details: with tead3_human TEAD3, Q99594

effect of a mutation on the interaction	Variant
with no effect	R361H

Variants of: B1
Details: with tgfr2_human TGFBR2, P37173

effect of a mutation on the interaction	Variant
with no effect	R361H

Variants of: B1
Details: with tnr14_human TNFRSF14, Q92956

effect of a mutation on the interaction	Variant
with no effect	R361H

Variants of: B1
Details: with tpx2_human TPX2, Q9ULW0

effect of a mutation on the interaction	Variant
with no effect	R361H

Variants of: B1
Details: with trrap_human TRRAP

effect of a mutation on the interaction	Variant
with no effect	R361H

Variants of: B1
Details: with tsc2_human TSC2, P49815

effect of a mutation on the interaction	Variant
with no effect	R361H

Variants of: B1
Details: with tshr_human TSHR

effect of a mutation on the interaction	Variant
with no effect	R361H

Variants of: B1
Details: with vhl_human VHL

effect of a mutation on the interaction	Variant
with no effect	R361H

Variants of: B1
Details: with wt1_human WT1, P19544

effect of a mutation on the interaction	Variant
with no effect	R361H

Variants of: B1
Details: with wwtr1_human WWTR1, Q9GZV5

effect of a mutation on the interaction	Variant
with no effect	R361H

Variants of: B1
Details: with xpo1_human XPO1, O14980

effect of a mutation on the interaction	Variant
with no effect	R361H

Variants of: B1
Details: with 1433b_human YWHAB

effect of a mutation on the interaction	Variant
with no effect	R361H

Variants of: B1
Details: with 1433e_human YWHAE

effect of a mutation on the interaction	Variant
with no effect	R361H

Variants of: B1
Details: with 1433z_human YWHAZ

effect of a mutation on the interaction	Variant
with no effect	R361H

Variants of: B1
Details: with smad3_human SMAD3, P84022
Remark: another data set of the same source

effect of a mutation on the interaction	Variant
decreasing interaction strength	R361H

Reference: IntAct's records for PubMed 35512704
